The results in this text go back to patent publication US20230365670A1 (SCOUT BIO, published 2023).

The target in assay [1] is T1, mouse (murine) NGF (mouse (murine), UniProt P01139 122-241, limits assumed).
T1 construct: also called muNGF
In words: ELISA, plates coated with 0.1 µg/ml muNGF, antibody at 100 to 1.56 ng/ml for the standard curve, goat anti-canine IgG-HRP detection. As to the method: Pharmacokinetic (PK) studies were conducted in healthy dogs. Four animals were administered purified ca_αD11_HCCDR2(LN) subcutaneously (SC) at 1.0 mg/kg body weight on Day 0 and Day 28 of the study. The ca_αD11_HCCDR2(LN) antibody carries the same CDR sequences as described in Tables 3 and 4, below. Serum concentrations of ca_αD11_HCCDR2(LN) were assessed over 56 days using an NGF-binding ELISA, as detailed below. Pharmacokinetic parameters were determined using PKSolver software (Zhang Y et al. Computer Methods and Programs in Biomedicine. 2010; 99(3):306-314). The emergence of anti-drug antibodies was assessed at Days 28 and 56 using a bridging electrochemiluminescence (ECL) assay, as detailed below.
The concentration of ca_αD11_HCCDR2(LN) in dog serum was determined using an NGF-binding ELISA. Briefly, ELISA plates were coated with 0.1 μg/ml murine NGF (muNGF) and blocked with PBS/0.05% Tween 20/1% BSA. muNGF coated wells were incubated for 1 hour at room temperature with serum diluted in PBS/0.05% Tween 20/1% BSA (100 μl/well). Antibody concentrations ranging from 100 ng/ml to 1.56 ng/ml were used to establish a standard curve. After washing, the plates were incubated with a 1/10,000 dilution of goat anti-canine IgG-HRP in PBS/0.05% Tween 20/1% BSA. […] Development was stopped by the addition of 2M H₂SO₄ and absorbance read at 450 nm and background was subtracted.

Assay [2] deals with T1, mouse (murine) NGF. In words: ELISA, plates coated with 0.1 µg/ml muNGF, antibody at 100 to 1.56 ng/ml for the binding curve, goat anti-feline IgG-HRP detection. How it is done:
Pharmacokinetic (PK) studies were conducted in healthy cats. Four animals were administered each of the felinized anti-NGF antibodies (fe_αD11, fe_αD11+HCCDR1(F/L) and fe_αD11+HCCDR2(LN)) subcutaneously (s.c.) at 2.0 mg/kg on Days 0, 21, 42 and 63. Serum concentrations of the antibodies were assessed over 91 days. The concentration of each antibody in the serum was determined using an NGF-binding ELISA. Briefly, ELISA plates were coated with 0.1 μg/ml mouse (murine) NGF (muNGF) and blocked with PBS/0.05% Tween 20/1% BSA. muNGF-coated wells were then incubated for 1 hour at room temperature with antibody preparations, diluted in PBS/0.05% Tween 20/1% BSA (100 μl/well). Antibody concentrations ranging from 100 ng/ml to 1.56 ng/ml were used to establish a binding curve. After washing, the plates were incubated with a 1/5,000 dilution of goat anti-feline IgG-HRP in PBS/0.05% Tween 20/1% BSA. Plates were washed with PBS/0.05% Tween 20 and developed by the addition of TMB substrate. Development was stopped by the addition of 2M H₂SO₄, absorbance read at 450 nm and background values were subtracted from the absorbance readings. The non-compartmental pharmacokinetic parameters of the three felinized anti-NGF antibodies post-dose 1 and 4 were calculated using PKsolver. software.

T1 sequence (P01139 122-241 limits assumed): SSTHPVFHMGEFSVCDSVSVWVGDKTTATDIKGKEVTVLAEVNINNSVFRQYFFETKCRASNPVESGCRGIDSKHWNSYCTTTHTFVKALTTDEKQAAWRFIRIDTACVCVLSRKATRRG

B1: ca_αD11_HCCDR2(L/V) (caninized anti-NGF antibody) (antibody, V domains shown)
VH: EVTLQESGPGLVKPSQTLSLTCVVSGFSLTNNNVNWVRQRPGRGLEWMGGVWAGGATDYNSAVKSRISITRDTAKNQVSLQLSSMTTEDTAVYYCARDGGYSSSTLYAMDAWGQGTLVTVSS
VL: EIVMTQSPASLSLSQEEKVTITCRASEDIYNALAWYQQKPGQAPKLLIYNTDTLHTGVPSRFSGSGSGTDYSFTISSLEPEDVAVYFCQHYFHYPRTFGAGTKVELK
notes: The antibody was detected with goat anti-canine IgG-HRP; also called ca_αD11_HCCDR2(LN); CaNGF
Turning to B1, the binding result with mouse (murine) NGF [1] is reported as “binds”.

B2: fe_αD11_HCCDR1(F/L) (felinized anti-NGF monoclonal antibody, F to L at position 2 of heavy chain CDR1) (antibody, V domains shown)
VH: QVQLMESGADLVQPSESLRLTCVASGLSLTNNNVNWVRQAPGKGLEWMGGVWAGGATDYNSALKSRLTITRDTSKNTVFLQMHSLQSEDTATYYCARDGGYSSSTLYAMDAWGQGTTVTVSA
VL: DIEMTQSPLSLSATPGETVSISCRASEDIYNALAWYLQKPGRSPRLLIYNTDTLHTGVPDRFSGSGSGTDFTLKISRVQTEDVGVYFCQHYFHYPRTFGQGTKLELKR
notes: also called fe1_αD11_HCCDR1(F/L)
Consider B2, for which, in the assay with mouse (murine) NGF [2], the binding result is given as “binds”.

B3: fe_αD11 (felinized anti-NGF monoclonal antibody with the CDR sequences of rat αD11) (antibody, V domains shown)
VH: QVQLVESGAELVQPGESLRLTCAASGFSLTNNNVNWVRQAPGKGLEWMGGVWAGGATDYNSALKSRLTITRDTSKNTVFLQMHSLQSEDTATYYCARDGGYSSSTLYAMDAWGQGTTVTVSA
VL: DIEMTQSPLSLSVTPGESVSISCRASEDIYNALAWYLQKPGRSPRLLIYNTDTLHTGVPDRFSGSGSGTDFTLKISRVQTEDVGVYFCQHYFHYPRTFGQGTKLELKR
notes: also called fe1_αD11
As to B3, the binding result in the assay with mouse (murine) NGF [2] was “binds”.

B4: fe_αD11_HCCDR2(L/V) (felinized anti-NGF monoclonal antibody, L to V at position 14 of heavy chain CDR2) (antibody, V domains shown)
VH: QVQLVESGGDLVQPGGSLRLTCVASGFSLTNNNVNWVRQAPGKGLEWMGGVWAGGATDYNSAVKSRLTITRDTSKNTVFLQMHSLQSEDTATYYCARDGGYSSSTLYAMDAWGQGTTVTVSA
VL: DIEMTQSPLSLSATPGETVSISCRASEDIYNALAWYLQKPGRSPRLLIYNTDTLHTGVPDRFSGSGSGTDFTLKISRVQTEDVGVYFCQHYFHYPRTFGQGTKLELKR
notes: also called fe_αD11+HCCDR2(LN); fe_αD11_HCCDR2(LN)
For B4, in the assay with mouse (murine) NGF [2], the binding result was “binds”.
